The target in one experiment is T1, A.9004SS V1/V2 tags.
T1 V1V2 tags construct: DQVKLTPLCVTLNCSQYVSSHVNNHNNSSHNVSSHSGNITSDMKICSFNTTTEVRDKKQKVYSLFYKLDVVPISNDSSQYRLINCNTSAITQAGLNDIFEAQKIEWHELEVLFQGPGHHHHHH
Put plainly: ELISA, OD405 at 10 ug/ml. (ELISA stands for enzyme-linked immunosorbent assay.)

The target in experiment [1] is AE.con gp140CF. Put plainly: ELISA, OD405 at 10 ug/ml.
The target in experiment [2] is B.040 gp140C. Put plainly: ELISA, OD405 at 10 ug/ml.
Experiment [3] deals with T2, B.62357 gp140C.
T2 construct: also called B.62357 140C
The experiment can be described thus: ELISA, OD405 at 10 ug/ml.

For a further experiment, the target named is B.63521_V1/V2 tags. Put plainly: ELISA, OD405 at 10 ug/ml.
For experiment [4], the target named is T3, C.1086 gp140.
T3 construct: also called C.1086gp140C
The experiment can be described thus: ELISA, OD405 at 10 ug/ml.

Experiment [5] deals with Con 6 gp120. Put plainly: ELISA, OD405 at 10 ug/ml.
The target of the next experiment is D.9009SA V1/V2 tags. Put plainly: ELISA, OD405 at 10 ug/ml.
For experiment [6], the target named is G.con gp140CF. Put plainly: ELISA, OD405 at 10 ug/ml.
Another experiment concerns the target T4, AE.A244 gp120 delta 11 (HIV-1).
T4 construct: also called E.A244gp120Δ11; AE.A244 Δ11 gp120
The experiment can be described thus: SPR, mAb captured on anti-Fc, monomeric gp120 injected. For orientation: In SPR one partner is held on a chip, and binding of the other changes the refractive index at the surface.

Experiment [7] has as its target AE.A244 V1V2 Tags (HIV-1). The experiment can be described thus: ELISA; markers as in the legend printed on D00157.
Experiment [8] concerns the target AE.con gp140CF. Put plainly: ELISA, OD405 at 10 ug/ml. The source holds these as a separate data set.
Experiment [9] deals with B.040 gp140C. The experiment can be described thus: ELISA, OD405 at 10 ug/ml. The source holds these as a separate data set.
Experiment [10] concerns the target T2, B.62357 gp140C. The experiment can be described thus: ELISA, OD405 at 10 ug/ml. This is another data set of the same source.
Experiment [11] concerns the target B.con gp140CF. The experiment can be described thus: ELISA, OD405 at 10 ug/ml.
Experiment [12] concerns the target T3, C.1086 gp140. The experiment can be described thus: ELISA, OD405 at 10 ug/ml. The source holds these as a separate data set.
The target of experiment [13] is Con 6 gp120. The experiment can be described thus: ELISA, OD405 at 10 ug/ml. The source holds these as a separate data set.
Experiment [14] addresses G.con gp140CF. Put plainly: ELISA, OD405 at 10 ug/ml. This is another data set of the same source.
For experiment [15], the target named is T5, B.con gp140CF.
T5 construct: also called B.con.env03 gp140CF
The experiment can be described thus: ELISA, OD405.

Experiment [16] has as its target T6, J08 A.92RW020V1V2/N156QN160Q (HIV-1).
T6 construct: also called J08 A.92RW020VV1V2/N156QN160Q
The experiment can be described thus: ELISA, mAb 0.001-100 ug/ml on coated V1V2 scaffold, OD450.

For experiment [17], the target named is AE.A244 V1V2 Tags (HIV-1). Put plainly: ELISA.
For experiment [18], the target named is T7, D.9009SA V1V2 Tags.
T7 Env construct: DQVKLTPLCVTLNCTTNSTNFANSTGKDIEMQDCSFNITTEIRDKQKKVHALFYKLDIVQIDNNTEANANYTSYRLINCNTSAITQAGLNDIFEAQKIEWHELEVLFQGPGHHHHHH
The experiment can be described thus: ELISA, OD405.

The next experiment concerns the target T8, A.9004SS V1V2 Tags.
T8 Env construct: T1 V1V2 tags construct
The experiment can be described thus: ELISA, OD405.

The target of experiment [19] is T9, AE.con gp140CF.
T9 construct: also called AE.con.env03 gp140CF
Put plainly: ELISA, OD405.

In a further experiment the target is B. 681-7 gp140C. Put plainly: ELISA, OD405.
The target of a further experiment is B. 684-6 gp140C. The experiment can be described thus: ELISA, OD405.
The target in another experiment is T10, B.62357 140C.
T10 construct: also called B.62357 gp140C
The experiment can be described thus: ELISA, OD405.

For another experiment, the target named is B.63521 gp140C. The experiment can be described thus: ELISA, OD405.
For a further experiment, the target named is T11, B.63521_V1V2 Tags.
T11 Env construct: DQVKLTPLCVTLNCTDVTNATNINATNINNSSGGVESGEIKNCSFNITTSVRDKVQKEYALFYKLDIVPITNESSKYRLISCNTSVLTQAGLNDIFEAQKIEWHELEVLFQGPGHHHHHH
Put plainly: ELISA, OD405.

For a further experiment, the target named is T12, B.Case A2 V1/V2 Tags.
T12 Env construct: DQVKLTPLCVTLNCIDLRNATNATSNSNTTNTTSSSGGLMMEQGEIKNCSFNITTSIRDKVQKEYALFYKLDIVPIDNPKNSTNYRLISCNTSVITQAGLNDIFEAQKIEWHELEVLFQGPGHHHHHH
Put plainly: ELISA, OD405.

Experiment [20] addresses T5, B.con gp140CF. Put plainly: ELISA, OD405. This is another data set of the same source.
In experiment [21] the target is T13, C.1086 gp140.
T13 construct: also called C.1086gp140C
Put plainly: ELISA, OD405.

Experiment [22] addresses Con 6 gp120. The experiment can be described thus: ELISA, OD405.
For experiment [23], the target named is T7, D.9009SA V1V2 Tags. The experiment can be described thus: ELISA, OD405.
Experiment [24] has as its target T14, G.con gp140CF.
T14 construct: also called G.con.env03 gp140CF
The experiment can be described thus: ELISA, OD405.

Changes are numbered by the printed parent chain. Where two headings read alike, the source gives them in different places.

B1: CH59 (antibody, V domains shown)
VH: EVQLVESGGGLVQPGRSLRLSCAASGFTFDDGAMHWVRQAPGKGLEWVSGISWNSNIIAYADSVKGRFTISRDNAKNSLYLEMNSLRVEDTALYYCAKDSPRGELPLNYWGQGTLVTVSS
VL: SYELTQPPSVSVSPGQTARITCSGDALPKNYAYWYQQKSGQAPVLVIYEDSKRPSGIPERFSGSSSGTMATLTISGAQVEDEADYYCYSTDSSGNHRVFGGGTKLTVL
notes: also called mAb CH59
Regarding B1, the binding result is “binds” with A.9004SS V1/V2 tags; “binds” with AE.con gp140CF [1]; “no binding (tested: 10 ug/ml)” with B.040 gp140C [2]; “no binding (tested: 10 ug/ml)” in the experiment with B.62357 gp140C [3]; “no binding (tested: 10 ug/ml)” with B.63521_V1/V2 tags; “binds” in the experiment with C.1086 gp140 [4]. In addition, the binding result is reported as “no binding (tested: 10 ug/ml)” with Con 6 gp120 [5], “binds” with D.9009SA V1/V2 tags and “no binding (tested: 10 ug/ml)” with G.con gp140CF [6]. The affinity in the experiment with AE.A244 gp120 delta 11, expressed as Kd, was 2.2 nM.

B2: CH59 reverted unmutated ancestor antibody (antibody, V domains shown)
VH: B1 VH with G32Y, N56G, I57S, A59G, E82Q, V88A, L107F, N108D
VL: B1 VL with N30K
notes: also called CH59 RUA; CH59_RUA
Take B2: in the experiment with AE.A244 V1V2 Tags [7], the “EC50 (read off the curve)” value was approximately 0.08 µg/mL.

B3: CH58 reverted unmutated ancestor antibody (antibody, V domains shown)
VH: EVQLVQSGAEVKKPGESLKISCKGSGYSFTSYWIGWVRQMPGKGLEWMGIIYPGDSDTRYSPSFQGQVTISADKSISTAYLQWSSLKASDTAMYYCARLGGRYYYDSSGYYYFDYWGQGTLVTVSS
VL: NFMLTQPHSVSESPGKTVTISCTRSSGSIASNYVQWYQQRPGSSPTTVIYEDNQRPSGVPDRFSGSIDSSSNSASLTISGLKTEDEADYYCQSYDSSSWVFGGGTKLTVL
notes: also called CH58 RUA; CH58_RUA
With B3, the binding result in the experiment with AE.con gp140CF [8], with B.040 gp140C [9], with B.62357 gp140C [10], with B.con gp140CF [11], with C.1086 gp140 [12] and with Con 6 gp120 [13] was “no binding (tested: 10 ug/ml)” throughout. The binding result with G.con gp140CF [14] is “no binding (tested: 10 ug/ml)”.

B4: PG16 (antibody, V domains shown)
VH: QEQLVESGGGVVQPGGSLRLSCLASGFTFHKYGMHWVRQAPGKGLEWVALISDDGMRKYHSDSMWGRVTISRDNSKNTLYLQFSSLKVEDTAMFFCAREAGGPIWHDDVKYYDFNDGYYNYHYMDVWGKGTTVTVSS
VL: QSALTQPASVSGSPGQTITISCNGTSSDVGGFDSVSWYQQSPGKAPKVMVFDVSHRPSGISNRFSGSKSGNTASLTISGLHIEDEGDYFCSSLTDRSHRIFGGGTKVTVL
notes: also called mAb PG16; bnAb PG16
With B4, the binding result is recorded as “no binding (tested: 10 ug/ml)” in the experiment with B.con gp140CF [15] and “no binding (tested: 100 ug/ml)” in experiment [16].

B5: 697D (antibody, V domains shown)
VH: QVQLVQSGAEVKKPGSSVKVSCKASGGNFNTYTISWVRQAPGQGLEWMGRIIPIFGIVNPAQKFPGRVTINVDKSTNTAYMELSSLRSEDTAVYYCATSGVGLHFGYFDYWGQGTQVTVSS
VL: QSVLTQPPSVSGAPGQRVTISCTGSSSNIGAHYDVHWYQQLPGTAPKLLIYGNSNRPSGVPDRFSGSKSGTSASLAITGLQAEDEADYYCQSYDSSLSGYVFGTGTKVTVL
notes: also called mAb 697D; V2 conformational mAb 697D
In the case of B5, the “EC50 (read off the curve)” value in the experiment with AE.A244 V1V2 Tags [17] was approximately 0.1 µg/mL. In addition, the binding result in the experiment with D.9009SA V1V2 Tags [18] is listed as “no binding (tested: 10 ug/ml)”.

B6: 697D reverted unmutated ancestor antibody (antibody, V domains shown)
VH: QVQLVQSGAEVKKPGSSVKVSCKASGGTFSSYTISWVRQAPGQGLEWMGRIIPILGIANYAQKFQGRVTITADKSTSTAYMELSSLRSEDTAVYYCATSGVGLHFGYFDYWGQGTLVTVSS
VL: B5 VL with H32G
notes: also called 697D RUA
B6: the binding result in the experiment with A.9004SS V1V2 Tags, with AE.con gp140CF [19], in the experiment with B. 681-7 gp140C, with B. 684-6 gp140C, with B.62357 140C and with B.63521 gp140C was “no binding (tested: 10 ug/ml)” throughout. For the same molecule, the binding result in the experiment with B.63521_V1V2 Tags, with B.Case A2 V1/V2 Tags, with B.con gp140CF [20], with C.1086 gp140 [21], with Con 6 gp120 [22] and with D.9009SA V1V2 Tags [23] was “no binding (tested: 10 ug/ml)” each time. For the same molecule, in the experiment with G.con gp140CF [24], the binding result is recorded as “no binding (tested: 10 ug/ml)”.

By Kd is commonly meant the equilibrium constant for the complex coming apart. A lower Kd goes with higher affinity. A word on the EC50 (read off the curve): it is the concentration at which the effect is half-maximal. Read a high EC50 (read off the curve) as lower potency in that assay.

Values taken from patent US9988424 (DUKE UNIVERSITY, dated 2018).
